target: HLA-A*02:01 (Homo sapiens, UniProt P04439, D140Y/D185E/D98H/E176V/E277Q/G131W/G231S/I119V/I121R/I166T/I218V/L300P/L318F/N151K/N90K/P208A/P217A/Q86G/Q94H/R138H/R169H/T345S); test: MHC binding assay: UV-ligand exchange with beta2m ELISA (exchange yield); details: binding to HLA-A*02:01, β2m ELISA
Method in brief: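 Exchange yield reflects how much β2m remains bound, measured by ELISA: streptavidin capture of 100-fold diluted monomers, HRP anti-β2m at 37° C. for 1 h, TMB read at 450 nm. Monomers come from UV cleavage of a conditional HLA-A*02:01 ligand in the presence of the candidate peptide.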

Substance | Peptide exchange (MHC class I binding score, peptide exchange yield)
282 (LLADVVPTT; listed as Homo sapiens) [compound 282] | “+++” (≥50 = +++)
41 (SLMPHIPGL; listed as Homo sapiens) [compound 41] | “+++” (≥50 = +++)
226 (MLYVVPIYL; listed as Homo sapiens) [compound 226] | “++” (≥20% = ++)
270 (LLLDEEGTFSL; listed as Homo sapiens) [compound 270] | “++” (≥20% = ++)
246 (LLWEVVSQL; listed as Homo sapiens) [compound 246] | “+++” (≥50 = +++)
126 (VLAYFLPEA; listed as Homo sapiens) [compound 126] | “++++” (≥75% = ++++)
181 (LLWAGTAFQV; listed as Homo sapiens) [compound 181] | “+++” (≥50 = +++)
256 (FLPPEHTIVYI; listed as Homo sapiens) [compound 256] | “+++” (≥50 = +++)
225 (SLLKVLPAL; listed as Homo sapiens) [compound 225] | “+++” (≥50 = +++)
280 (VLPDPEVLEAV; listed as Homo sapiens) [compound 280] | “+++” (≥50 = +++)
111 (YVWGFYPAEV; listed as Homo sapiens) [compound 111] | “+++” (≥50 = +++)
188 (GLFPVTPEAV; listed as Homo sapiens) [compound 188] | “+++” (≥50 = +++)
220 (LLQKFVPEI; listed as Homo sapiens) [compound 220] | “++” (≥20% = ++)
116 (YHIDEEVGF; listed as Homo sapiens) [compound 116] | “+” (≥10% = +)
163 (ALDEMGDLLQL; listed as Homo sapiens) [compound 163] | “+++” (≥50 = +++)
277 (LLPPLESLATV; listed as Homo sapiens) [compound 277] | “++” (≥20% = ++)
6 (VLVSDGVHSV; listed as Homo sapiens) [compound 6] | “+++” (≥50 = +++)
305 (SIANFSEFYV; listed as Homo sapiens) [compound 305] | “++++” (≥75% = ++++)
179 (KVLNELYTV; listed as Homo sapiens) [compound 179] | “+++” (≥50 = +++)
130 (FLWNGEDSALL; listed as Homo sapiens) [compound 130] | “+++” (≥50 = +++)
174 (ALAQYLITA; listed as Homo sapiens) [compound 174] | “+++” (≥50 = +++)
21 (VLDELDMEL; listed as Homo sapiens) [compound 21] | “++” (≥20% = ++)

The next lines start with the values.

Peptide exchange (MHC class I binding score, peptide exchange yield) | Substance
“++” (≥20% = ++) | 522 (TLWYRSPEV; listed as Homo sapiens) [compound 522]
“++” (≥20% = ++) | 494 (ALQPEPIKV; listed as Homo sapiens) [compound 494]
“+++” (≥50 = +++) | 314 (ALIAEGIALV; listed as Homo sapiens) [compound 314]
“+++” (≥50 = +++) | 469 (YLASDEITTV; listed as Homo sapiens) [compound 469]
“+++” (≥50 = +++) | 351 (SLIPNLRNV; listed as Homo sapiens) [compound 351]
“+++” (≥50 = +++) | 519 (GLLHLTLLL; listed as Homo sapiens) [compound 519]
“++++” (≥75% = ++++) | 310 (FLVDTPLARA; listed as Homo sapiens) [compound 310]
“+++” (≥50 = +++) | 544 (LLWDVPAPSL; listed as Homo sapiens) [compound 544]
“+++” (≥50 = +++) | 545 (LLADLLHNV; listed as Homo sapiens) [compound 545]
“+++” (≥50 = +++) | 622 (RLLGEEVVRVLQA; listed as Homo sapiens) [compound 622]
“+++” (≥50 = +++) | 357 (SMHDLVLQV; listed as Homo sapiens) [compound 357]
“+++” (≥50 = +++) | 562 (YLEELPEKLKL; listed as Homo sapiens) [compound 562]
“+++” (≥50 = +++) | 463 (SLVESHLSDQLTL; listed as Homo sapiens) [compound 463]
“++” (≥20% = ++) | 372 (TMLLNIPLV; listed as Homo sapiens) [compound 372]
“+++” (≥50 = +++) | 481 (GLIEDYEALL; listed as Homo sapiens) [compound 481]
“+++” (≥50 = +++) | 307 (ALPVSLPQI; listed as Homo sapiens) [compound 307]
“+++” (≥50 = +++) | 341 (SQIALNEKLVNL; listed as Homo sapiens) [compound 341]
“+++” (≥50 = +++) | 362 (TLYGLSVLL; listed as Homo sapiens) [compound 362]
“+++” (≥50 = +++) | 336 (ILLTAIVQV; listed as Homo sapiens) [compound 336]
“+++” (≥50 = +++) | 378 (ALGYFVPYV; listed as Homo sapiens) [compound 378]
“+++” (≥50 = +++) | 364 (LLQNEQFEL; listed as Homo sapiens) [compound 364]
“++” (≥20% = ++) | 440 (ALADGVTMQV; listed as Homo sapiens) [compound 440]
“+++” (≥50 = +++) | 335 (YSLSSVVTV; listed as Homo sapiens) [compound 335]
“++++” (≥75% = ++++) | 620 (KLLNKIYEA; listed as Homo sapiens) [compound 620]
“+++” (≥50 = +++) | 594 (IMLKGDNITL; listed as Homo sapiens) [compound 594]
“+++” (≥50 = +++) | 388 (SLTIDGIRYV; listed as Homo sapiens) [compound 388]
“+++” (≥50 = +++) | 495 (FIFSEKPVFV; listed as Homo sapiens) [compound 495]
“+++” (≥50 = +++) | 312 (IISDLTIAL; listed as Homo sapiens) [compound 312]

Source: patent publication US10280205B2, “Method for treating cancer with an activated T lymphocyte that selectively recognizes a cancer cell consisting of specific peptide” (immatics biotechnologies GmbH, priority 2015, dated 2019)
